Experimental findings from patent US20220251148A1 are described below.

This test deals with purified MHC (MHC II molecules purified by affinity chromatography). The test is described as follows: competition with a radiolabelled known MHC binding peptide for purified MHC.
Broadly, the IC50 is the midpoint of a concentration-inhibition curve. As to LQLQPFDQPRLPWPQ [P1f (SEQ ID NO: 37), modified alpha gliadin 15-mer peptide], the IC50 was 5.44 µM.
Turning to PYPHPRLPYTQPQPF [P3c (SEQ ID NO: 46), modified alpha gliadin 15-mer peptide], the IC50 is 2.99 µM.
Molecule PYPHPWLRGPQPQPF [P3f (SEQ ID NO: 48), modified alpha gliadin 15-mer peptide] yielded an IC50 of 0.879 µM.
For the molecule LQLQPFWQPKLPGPQ [P1g (SEQ ID NO: 38), modified alpha gliadin 15-mer peptide], the IC50 is 11.2 µM.
Regarding PYSQPESPYMQPQPF [P3d (SEQ ID NO: 47), modified alpha gliadin 15-mer peptide], the IC50 amounted to 1.99 µM.
In the case of KLPYPQGRLPGPQPQ [P2g (SEQ ID NO: 43), modified alpha gliadin 15-mer peptide] it was 3.75 µM.
